Reference: patent US20200131227A1, “POLYPEPTIDE WITH TUMOUR BINDING ACTIVITY” (RUPRECHT-KARLS-UNIVERSITÄT HEIDELBERG, priority 2017, published 2020)
Where a SMILES comes first, the peptide text is derived from it. Bridges are numbered along the chain shown (N, C = ends). The star is where a group is joined. DOTA = O=C(O)CN1CCN(CC(=O)O)CCN(CC(=O)*)CCN(CC(=O)O)CC1

Key:
[1] = tested on: carcinoma cell lines; experiment: In vitro binding of radiolabeled peptides to several carcinoma cell lines; format: cell-based, human; conditions: HNO97 and UM-UC-5 cells, ^125I-labeled, 60 min, versus SFPF-10
How it was run: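 Cells seeded 48 h were incubated with ^125I-labeled peptide in serum-free medium for 10 or 60 min, alone or with unlabeled peptide (10^−4 to 10^−11 M); HNO97 kinetics, efflux and internalization (37° C and 4° C, acid strip) used ^177Lu-DOTA-SFITGv6. Gamma counting gave % applied dose per 10^6 cells.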

[2] = Biodistribution, HNO97 xenografts; conditions: Balb/c nude, mouse, iv, 1 MBq, total radioactivity; for tissue uptake / tissue to tissue ratio at 0.5 h / tissue to tissue ratio at 1 h / tissue to tissue ratio at 2 h / tissue to tissue ratio at 4 h / tissue to tissue ratio at 6 h: in vivo; for tissue to tissue ratio at 0.5 h / tissue to tissue ratio at 1 h / tissue to tissue ratio at 2 h / tissue to tissue ratio at 4 h / tissue to tissue ratio at 6 h: HNO97 xenografts; for tissue to tissue ratio at 0.5 h: 30 min
Procedure: All experiments were conducted in compliance with the German animal protection laws. Eight week old Balb c/c nude mice (Charles River Laboratories) were inoculated subcutaneously at the right shoulder with 5×10^6 HNO97 cells in BD MatriGel™ (BD Bioscience). Xenografts were grown to a tumor diameter of 10-15 mm. For small animal-PET imaging mice were anesthetized using isoflurane inhalation and injected via tail-vein with 50 MBq (2 nmol) of the ^68Ga-labeled DOTA-SFITGv6 peptide (see above) solution in 100 μL PBS. Images were recorded on an Inveon small-animal PET scanner (Siemens) using a 60 min emission scan in list mode and a 10 min transmission scan. Images were taken in 3-dimensional (3D) mode and reconstructed iteratively with a fully 3D algorithm from a 256×256 matrix for viewing transaxial, coronal, and sagittal slices of 0.9 mm thickness. Pixel size was 0.38×0.38×0.79 mm3 and transaxial resolution obtained was 0.9 mm. For blocking experiments 100 μL of a 1 mM aqueous solution of SFITGv6 was pre-administered intraperitoneally 30 min before injection of the radiolabeled peptide. Biodistribution studies were performed after administration of 100 μL of a 20 nM ^177Lu-DOTA-SFITGv6 solution (1 MBq) as an intravenous bolus injection into the tail vein of the mice. After different time points (30 min to 6 hours) three animals, respectively, were sacrificed. Peripheral blood, heart, lung, spleen, liver, kidneys, muscle, brain, intestine, and injection site (tail, after intravenous injection only) were collected and weighted. Tissue-associated radioactivity was measured in a gamma counter (Berthold LB951G) and expressed as percentage of the injected dose per gram tissue (% ID/g).
All animal experiments were conducted in compliance with the German animal protection laws. For in vivo small animal PET imaging and organ distribution studies eight-week old Balb/c nude mice (Charles River Laboratories) were inoculated subcutaneously at the right shoulder with a total of 5×10^6 tumor cells in MatriGel (BD Bioscience). Xenografts were grown until a tumor diameter of 10-15 mm was reached.
3-dimensional (3D) PET images of whole mice were captured by the Siemens Inveon PET scanner as described in Example 1. To assess the biodistribution 100 μL of a 20 nM solution (1 MBq) of ^177Lu-DOTA-SFLAP3 and ^177Lu-DOTA-SFITGv6 were administered as an intravenous bolus injection into the tail vein of mice. For each time point (30 min to 6 hours) we sacrificed a total of three animals, and subsequently collected peripheral blood, heart, lung, spleen, liver, kidneys, muscle, brain, and intestine. Tissues were weighed and respective radioactivity was measured by a gamma counter (LB951G, Berthold Technologies). Values were expressed as percentage of the injected dose radioactivity (MBq) per gram tissue (% ID/g).

[3] = uptake in the kidneys, hardly any clearance

CSCC[C@@H]1NC(=O)[C@H](CC(C)C)NC(=O)[C@H](CC(=O)O)NC(=O)CNC(=O)[C@H](CCCNC(=N)N)NC(=O)[C@H](Cc2ccccc2)NC(=O)[C@H]([C@@H](C)O)NC(=O)[C@@H](NC(=O)[C@H](CCCNC(=N)N)NC(=O)CN)CSSC[C@@H](C(=O)N[C@@H](Cc2ccc(O)cc2)C(=O)N2CCC[C@H]2C(=O)N[C@@H](CC(=O)O)C(=O)O)NC(=O)[C@H](CC(C)C)NC(=O)[C@H](CCC(N)=O)NC1=O [SFITGv6, NH2-G-R-C1-T-F-R-G-D-L-M-Q-L-C1-Y-P-D-COOH] (H-GRCTFRGDLMQLCYPD-OH; disulfide 3-13)
binding after substitution of lysine (K) to leucine (L) in FRGDKMQL [1]: substantially increased the binding | tissue uptake ([2]; activity in the blood): < 1 %ID/g | tissue uptake [2, 3]: ~42 %ID/g | tissue uptake at 0.5 h [2]: > 6 %ID/g | tissue uptake at 6 h [2]: 2.4 %ID/g

CSCC[C@@H]1NC(=O)[C@H](CC(C)C)NC(=O)[C@H](CC(=O)O)NC(=O)CNC(=O)[C@H](CCCNC(=N)N)NC(=O)[C@H](Cc2ccccc2)NC(=O)[C@H]([C@@H](C)O)NC(=O)[C@@H](NC(=O)[C@H](CCCNC(=N)N)NC(=O)CNC(=O)CN2CCN(CC(=O)O)CCN(CC(=O)O)CCN(CC(=O)O)CC2)CSSC[C@@H](C(=O)N[C@@H](Cc2ccc(O)cc2)C(=O)N2CCC[C@H]2C(=O)N[C@@H](CC(=O)O)C(=O)O)NC(=O)[C@H](CC(C)C)NC(=O)[C@H](CCC(N)=O)NC1=O [^177Lu-DOTA-SFITGv6, metal not drawn] ({DOTA}-GRCTFRGDLMQLCYPD-OH; disulfide 3-13)
tissue to tissue ratio at 0.5 h ([2]; Tumor-to-Blood ratio): 6.89 ± 1 | tissue to tissue ratio at 1 h ([2]; Tumor-to-Blood ratio): 12.9 ± 0.83 | tissue to tissue ratio at 2 h ([2]; Tumor-to-Blood ratio): 59.5 ± 1.04 | tissue to tissue ratio at 4 h ([2]; Tumor-to-Blood ratio): 98.86 ± 0.35 | tissue to tissue ratio at 6 h ([2]; Tumor-to-Blood ratio): 99.15 ± 0.51 | tissue to tissue ratio at 0.5 h ([2]; Tumor-to-Brain ratio): 190.9 ± 1 | tissue to tissue ratio at 1 h ([2]; Tumor-to-Brain ratio): 198.6 ± 0.82 | tissue to tissue ratio at 2 h ([2]; Tumor-to-Brain ratio): 250.3 ± 1.04 | tissue to tissue ratio at 4 h ([2]; Tumor-to-Brain ratio): 372.6 ± 0.35 | tissue to tissue ratio at 6 h ([2]; Tumor-to-Brain ratio): 424.9 ± 0.51 | tissue to tissue ratio at 0.5 h ([2]; Tumor-to-Heart ratio): 15.1 ± 1 | tissue to tissue ratio at 1 h ([2]; Tumor-to-Heart ratio): 21.9 ± 0.82 | tissue to tissue ratio at 2 h ([2]; Tumor-to-Heart ratio): 48.8 ± 1.04 | tissue to tissue ratio at 4 h ([2]; Tumor-to-Heart ratio): 67.5 ± 0.36 | tissue to tissue ratio at 6 h ([2]; Tumor-to-Heart ratio): 78.99 ± 0.51 | tissue to tissue ratio at 0.5 h ([2]; Tumor-to-Intestine ratio): 4.59 ± 1 | tissue to tissue ratio at 1 h ([2]; Tumor-to-Intestine ratio): 3.42 ± 0.83 | tissue to tissue ratio at 2 h ([2]; Tumor-to-Intestine ratio): 9.44 ± 1.05 | tissue to tissue ratio at 4 h ([2]; Tumor-to-Intestine ratio): 10.7 ± 0.36 | tissue to tissue ratio at 6 h ([2]; Tumor-to-Intestine ratio): 7.82 ± 0.51 | tissue to tissue ratio at 0.5 h ([2]; Tumor-to-Kidney ratio): 0.15 ± 3.73 | tissue to tissue ratio at 1 h ([2]; Tumor-to-Kidney ratio): 0.12 ± 2.21 | tissue to tissue ratio at 2 h ([2]; Tumor-to-Kidney ratio): 0.1 ± 3.11 | tissue to tissue ratio at 4 h ([2]; Tumor-to-Kidney ratio): 0.07 ± 2.69 | tissue to tissue ratio at 6 h ([2]; Tumor-to-Kidney ratio): 0.06 ± 2.58 | tissue to tissue ratio at 0.5 h ([2]; Tumor-to-Liver ratio): 20.8 ± 1 | tissue to tissue ratio at 1 h ([2]; Tumor-to-Liver ratio): 21.5 ± 0.82 | tissue to tissue ratio at 2 h ([2]; Tumor-to-Liver ratio): 25.8 ± 1.04 | tissue to tissue ratio at 4 h ([2]; Tumor-to-Liver ratio): 32.2 ± 0.36 | tissue to tissue ratio at 6 h ([2]; Tumor-to-Liver ratio): 17.6 ± 0.51 | tissue to tissue ratio at 0.5 h ([2]; Tumor-to-Lung ratio): 2.29 ± 1.14 | tissue to tissue ratio at 1 h ([2]; Tumor-to-Lung ratio): 3.81 ± 0.82 | tissue to tissue ratio at 2 h ([2]; Tumor-to-Lung ratio): 9.13 ± 1.05 | tissue to tissue ratio at 4 h ([2]; Tumor-to-Lung ratio): 10.3 ± 0.36 | tissue to tissue ratio at 6 h ([2]; Tumor-to-Lung ratio): 9.73 ± 0.51 | tissue to tissue ratio at 0.5 h ([2]; Tumor-to-Muscle ratio): 13.9 ± 1 | tissue to tissue ratio at 1 h ([2]; Tumor-to-Muscle ratio): 16.1 ± 0.83 | tissue to tissue ratio at 2 h ([2]; Tumor-to-Muscle ratio): 22.7 ± 1.04 | tissue to tissue ratio at 4 h ([2]; Tumor-to-Muscle ratio): 32.3 ± 0.36 | tissue to tissue ratio at 6 h ([2]; Tumor-to-Muscle ratio): 21.9 ± 0.51 | tissue to tissue ratio at 0.5 h ([2]; Tumor-to-Spleen ratio): 21.1 ± 1 | tissue to tissue ratio at 1 h ([2]; Tumor-to-Spleen ratio): 27.4 ± 0.82 | tissue to tissue ratio at 2 h ([2]; Tumor-to-Spleen ratio): 38.4 ± 1.04 | tissue to tissue ratio at 4 h ([2]; Tumor-to-Spleen ratio): 51.78 ± 0.36 | tissue to tissue ratio at 6 h ([2]; Tumor-to-Spleen ratio): 35.4 ± 0.51 | tissue uptake [2, 3]: ~42 %ID/g | tissue uptake at 0.5 h [2]: 6.22 ± 1 %ID/g | tissue uptake at 6 h [2]: 2.43 ± 0.51 %ID/g
